Reference: patent publication KR20210143097A (dated 2021)

T1: CD22 on B-cell lymphoma U2932 cells (UniProt P20273 20-847, limits assumed)
T1 construct: whole, on cells; Endogenous CD22 on the U2932 cell line; also called CD22를 발현하는 비세포림프종 U2932; CD22를 발현하는 U2932 세포
T1 sequence (looked up): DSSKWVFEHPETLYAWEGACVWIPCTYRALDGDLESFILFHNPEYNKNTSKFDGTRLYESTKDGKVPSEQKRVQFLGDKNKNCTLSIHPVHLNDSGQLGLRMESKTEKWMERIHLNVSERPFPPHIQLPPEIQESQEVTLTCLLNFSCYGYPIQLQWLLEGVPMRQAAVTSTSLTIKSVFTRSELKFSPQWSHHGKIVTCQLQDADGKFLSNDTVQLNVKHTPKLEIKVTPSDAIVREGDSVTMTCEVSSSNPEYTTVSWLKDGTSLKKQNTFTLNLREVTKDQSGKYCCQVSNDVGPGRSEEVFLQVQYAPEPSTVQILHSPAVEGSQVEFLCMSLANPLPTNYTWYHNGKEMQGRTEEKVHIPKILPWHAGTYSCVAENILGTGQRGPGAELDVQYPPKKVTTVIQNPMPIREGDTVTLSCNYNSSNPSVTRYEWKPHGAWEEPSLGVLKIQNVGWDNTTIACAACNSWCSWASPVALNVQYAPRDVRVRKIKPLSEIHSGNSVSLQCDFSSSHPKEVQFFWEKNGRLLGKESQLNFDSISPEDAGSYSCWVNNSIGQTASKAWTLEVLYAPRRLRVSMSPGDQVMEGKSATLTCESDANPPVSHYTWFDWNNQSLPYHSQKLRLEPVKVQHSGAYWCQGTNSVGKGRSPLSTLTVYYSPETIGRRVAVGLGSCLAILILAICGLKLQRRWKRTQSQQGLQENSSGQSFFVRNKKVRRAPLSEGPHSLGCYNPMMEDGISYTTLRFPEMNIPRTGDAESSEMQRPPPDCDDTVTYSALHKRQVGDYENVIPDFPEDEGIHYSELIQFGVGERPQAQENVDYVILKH


Legend:
[1] = target: CD22-His tag (CD22 extracellular domain; ACRObiosystems Inc.) (UniProt P20273); assay: ELISA, CD22-His tag coated at 100 ng/well, primary antibody 0.4 ㎍/㎖, absorbance at 450 nm
[2] = target: T1, CD22 on B-cell lymphoma U2932 cells; assay: flow cytometry on U2932 cells, 1 ㎍ antibody per 1x10^6 cells, PE anti-mouse IgG secondary

Binder	OD450 측정값 [1]	binding result [2]
3F11 항체 (antibody, V domains shown, Antibody from a mouse hybridoma, detected with an anti-mouse IgG secondary antibody) VH: EVKLVESGGGLVQPGGSMKLSCVASGFTFSNYWMNWVRQSPEKGLEWVAEIRLKSNNYATHYAESVKGRFTISRDDSKSSVYLQMNNLRAEDTGIYYCTSIYYYGRDYAMDYWGQGTSVTVSS VL: DIVMTQSPAIMSASLGERVTMTCTASSSVSSSYLHWYQQKPGSSPKLWIYSTSNLASGVPARFSGSGSGTSYSLTISSMEAEDAATYYCHQYHRSPYTFGGGTKLEIK	1.86	binds
7B5 항체 (antibody, V domains shown, Antibody from a mouse hybridoma, detected with an anti-mouse IgG secondary antibody) VH: EVQLEESGPGLVAPSQSLSITCTVSGFSLTRYDISWIRQPPGKGLEWLGVMWTGGGTNYNSAFMSRLSISRDNSKSQVFLKMNSLQTDDTAIYYCVRSYYGSAMDYWGQGTSVTVSS VL: DIVMTQSSSYLSVSLGGRVTITCKASDHINNWLAWYQQKPGNAPRLLISGATSLETGVPSRFSGSGSGKDYTLSITSLQTEDVATYYCQQHWSTPFTFGSGTKLEIK	2.66	binds
